The values that follow come from US20140179612A1.

For this test, the target named is αVβ3 integrin receptor on choroid endothelial cells (RF/6A). The test can be described thus: cell-based or functional assay.

Consider “transferrin-tumstatin protein (recombinant fusion, secreted from ARPE cells, histidine tagged) (from UniProt P02787 20-698; Q01955 1426-1670)”, for which the IC50, MTT assay of RF/6A choroid endothelial cell proliferation induced by VEGF 165 (50 ng/ml) worked out at 5.97 nM and the inhibition of RF/6A cell proliferation at 15.6 nM (MTT assay) was determined as 84%. “tumstatin protein (recombinant, secreted from ARPE cells, histidine tagged) (from UniProt Q01955 1426-1670) (ligand)” showed an IC50, MTT assay of RF/6A choroid endothelial cell proliferation induced by VEGF 165 (50 ng/ml) of 186 nM.
